Reference: paper PMC4695338

What was measured:
Assay in all cases: EMSA
Details in all cases: EMSA: fluorescein-12 ssRNA incubated with MBP-tagged proteins, agarose gel; buffer, salt, pH and temperature not in the material
[1] = tested on: Pdd1p MIM14_FL (Tetrahymena (species not given))
[2] = tested on: Pdd1p MIM22+Ins6K_FL (Tetrahymena (species not given))
[3] = tested on: Pdd1p WT_FL (Tetrahymena (species not given))
[4] = tested on: Pdd1p WT_HNG1 (hinge region 1) (Tetrahymena (species not given))
[5] = tested on: Pdd1p WT_HNG2 (hinge region 2) (Tetrahymena (species not given))

Work on EGFP ssRNA yielded a Kd [1] of 340 nM, a Kd [2] of 347 nM and a Kd [3] of 65 nM. The Kd [4] was 130 nM and the Kd [5] was > 630 nM.
